The results in this text go back to the nanobody polyreactivity screen of Harvey et al. (2022).

A short description of the series: yeast display, Sf9 membrane polyspecificity reagent, FACS + sequencing; frameworks hold sequencing errors. Put shortly:
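Polyreactivity labels are assigned by the sorting gate from which each nanobody was recovered. The gates were low and high (top ~1%), set on anti-HA fluorescence for expression and streptavidin fluorescence for reagent binding. Before sorting, galactose-induced (36–48 hours) yeast display cells were stained for 1 hour at 4 °C with 10% biotinylated, detergent-solubilized Sf9 membrane reagent.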
With “QVQLVESGGGLVLAGGSLRLSCAASGSIFDDNAMGWYIQAPGKERELVAANTVSTDTTYYADSVKGRFTISRDIAKNTVSLLMNSLKPEDTAVYYCAAEGPGYGPTGDFYWYTYYYWGQGTQVTVSS”, the “polyreactivity (PSR sort gate)” value was “low polyreactivity”.

As to “QVQLVESGGGLVLAGGSLRLSCAASGSIFGPYAMGWYRQAPGKERELVAAIRSGGSTNYADSVKGRFTISRDNAKNTVYLQMNSLKPEDNAVYYCAAEYWGYPYDYWGQGTQVTVSS”, the “polyreactivity (PSR sort gate)” value was “low polyreactivity”.

As to “QVQLVESGGGLVLAGGSLRLSCAASGSIFPLYAMGWYRQAPGKERELVAAITGTSSTYADSVKGRFTISRDNAKNTVYLQMNSLKPEDTAVYYCARVGWSWPRREKYNYWGQGTQVTVSS”, the “polyreactivity (PSR sort gate)” value is “high polyreactivity”.

Regarding “QVQLVESGGGLVLAGGSLRLSCAASGSTFYAHAMGWYRQARGKERELVAAITSGGSTNYADSVKGRFTISRDNAKNTVNLQINSLKPEDTAVYYCATPVNRERHAEDYWGQGTQVTVSS”, the “polyreactivity (PSR sort gate)” value is “low polyreactivity”.

For “QVQLVESGGGLVLPGGRLRLSCAASGGTFSTYAIASYRQGPGKERELVAAISSRGTSTYYADSVKGRFTISRDNAKNSVYLQMNSLKPEDTAVYYCAAVGVKQFLGGNPFDYWGQGTQVTVSS”, the “polyreactivity (PSR sort gate)” value is recorded as “high polyreactivity”.

For the sequence “QVQLVESGGGLVMAGGRLRLSCAASGSTFGYYAMGWYRQAPGKERELVAVITTRVGSTYYADSVKGRFTFSRDNAKNTVYLQMNSLKPEDTAVYYCNASGRTRSYSGSFSKHYYWGQGTQVTVSS”, the “polyreactivity (PSR sort gate)” value is given as “high polyreactivity”.

For the sequence “QVQLVESGGGLVMAVGSLRLSCAASGSTFAGNAMGWYRQAPGKERELVAAISIVGSTSYADSVKGRFTISRDNAKITFYLQMNSLKPEDTAVYDCAAEWVTSYLNYYHWGQGTQVTVSS”, the “polyreactivity (PSR sort gate)” value is reported as “low polyreactivity”.

For the sequence “QVQLVESGGGLVNAGGSLRLSCAASGITLVVYGMGWYRQAPGKETELVAAMTSGGRTYYADSVTGRFTISRDNAKNTVYLQMNSLKPEDTAVYYCAADRYFRQYGRYYYWGQGTQVTVSS”, the “polyreactivity (PSR sort gate)” value is on record as “high polyreactivity”.

As for “QVQLVESGGGLVNAGGSLRLSCAASGRTFRNYAMGWYRQAPGKERELVAANSSGGSTNYADSVKGRFTISRDNAKNTVYLQMNSLKPEDTAVYFCAARQRAYYGPGFDYWGQGTQVTVSS”, the “polyreactivity (PSR sort gate)” value is listed as “low polyreactivity”.

As to “QVQLVESGGGLVNAGGSLRLSCAASGSIFKYNVMGWYRQAPGKEREMVAAITSRGTSTYYADSVKGRFTISRDNAKNTVYLQMNSLKPEDTAVYYCAADDNYYTFGYWGQGTQVTVSS”, the “polyreactivity (PSR sort gate)” value was “high polyreactivity”.

Consider “QVQLVESGGGLVPAGGSLLLSCAASGLTFYVYAMGWYRQAPGKERELVAAISSGGRTYYADSVKGRFTISRDNAKNTVYLQMNSLKPEDTAVYYCAAFRHRNYGYWGQGTQVTVSS”, for which the “polyreactivity (PSR sort gate)” value is “high polyreactivity”.

With “QVQLVESGGGLVPAGGSLRLSCAASGGTFYTYVMGWSSQAPGKERELGAAIAGSGNTYYADSVKGRFTISRDKAKKTVYLQMNSLKPEDTAVYYCAKVLRMYPSGSWYGYWGQGTQVTVSS”, the “polyreactivity (PSR sort gate)” value was “high polyreactivity”.

“QVQLVESGGGLVPAGGSLRLSCAASGRIFPQYAMGWYRQAPGKERELVAAISYRGGSTYYADSVKGRFTISRDNAKNTVYSQMNSLKPEDTAVYYCAAKRYNYWGQGTQVTVST”: the “polyreactivity (PSR sort gate)” value is recorded as “high polyreactivity”.

Consider “QVQLVESGGGLVPAGGSLRLSCAASGSIFGRNTMGWYRQAPGKERELVAAISSRGTSTYYADSVKGRFTISRDNAKNTVYLQMNSLKPEDTAVYYSAARVYPYNYWGQGTQVTVSS”, for which the “polyreactivity (PSR sort gate)” value is “high polyreactivity”.

Consider “QVQLVESGGGLVPAGGSLRLSCAASGSTFHYYTMGWYRQAPGKERELVAAISWRGTSTYYADSVKGRFTISRDNAKNTVYLQMNSLKAEDTGVYYCAVRSSPGAGYYYWGQGTQVTVSS”, for which the “polyreactivity (PSR sort gate)” value is recorded as “high polyreactivity”.

As to “QVQLVESGGGLVPAGGTLRLSCAASGFNFYFNTMGWYRQATGKERELVAAISSGGSTYYADSVKGRFTISRDNAKNTVSFQMNSLKPEDTAVYYCNKDYLQYYPYDYWGHGTQVTVSS”, the “polyreactivity (PSR sort gate)” value was “low polyreactivity”.

Turning to “QVQLVESGGGLVPARGSLRLSCAASGRTFGPYAMGWYRQAPGKERELVAAITDTGSGTYYADSVKGRFTISRDNSKNTVYLQMNSLKPVDTAVYYCNAVRKYWGQGTQVTVSS”, the “polyreactivity (PSR sort gate)” value is recorded as “low polyreactivity”.

Regarding “QVQLVESGGGLVQAAGSLRLICAASGSTFPANAMGWYRQEPGKERELVASITKSGGDTYYADSVKGRFTISRDNAKNSVYVQMNSLKPEDTAVYDCAKDYVNQYGVYKVWANNYNYWGQGTQVTVSS”, the “polyreactivity (PSR sort gate)” value is on record as “low polyreactivity”.

On to “QVQLVESGGGLVQAAGSLRLSCAASGRIFRRYAMGWYRQAPGKERELVAAITNNGANTYYADSVKGRFTISRDNAKNTVYLQMNSLKPEDTAVYDCARKSYPGRPAYRYDYWGQGTQVTVSS”, for which the “polyreactivity (PSR sort gate)” value is reported as “high polyreactivity”.

As to “QVQLVESGGGLVQAAGSLRLSCAASGRTFYDNAMGWYRQAPGKERELVAAITKSGGRTYYVDSVKGRFTISRDNAKNTVYLQMNSLKPEDTAVYYCAASWPNYLYEYWGQGTQVTVSS”, the “polyreactivity (PSR sort gate)” value is listed as “high polyreactivity”.

As to “QVQLVESGGGLVQAAGSLRLSCAASGRTFYVYDMGWYRQAPGKERELVAVISSSGSTNYADSVKGRFTISGDNAKNSVYLQMNSLKPEDTAVYDCYRRRWYFFSLDYWGQGTQVTVSS”, the “polyreactivity (PSR sort gate)” value is “high polyreactivity”.

Consider “QVQLVESGGGLVQAAGSLRLSCAASGSIFGVNVMGWYRQAPGKERELVAAITTSGGSTYYADSVKGRFTISRDNAKNTVYLQMNSLKPEDTAVYYCAAEVYYPIFLTFYYRGQGTQVTVSS”, for which the “polyreactivity (PSR sort gate)” value was “high polyreactivity”.

In the case of “QVQLVESGGGLVQAAGSLRLSCAASGSIFNRSTMGWSRQAPGKERELVAGISRGGTTYYADSVKGRFTISRDNAKNTVYLQMNSLKPEDTAVFYCAADYGLLYGQLWGYGYWGQGTQVTVSS”, the “polyreactivity (PSR sort gate)” value is “high polyreactivity”.

For the sequence “QVQLVESGGGLVQAAGSLRLSCAASGSTFPYYAMGWYRQAPGQERELVAAIPRSGGSTYSADSVKGRFTISRDHAKNTVYLQMNSLKPEDTAVYYCAAKLAQRYFYRYDYWGPGTQVTVSS”, the “polyreactivity (PSR sort gate)” value is recorded as “high polyreactivity”.

On to “QVQLVESGGGLVQAAGSLRLSCAASGSTFYRNAMGWYRQAPGKERELVASINNGGSTYYADSVKGRFTISRDNAKNTVYLQMNSLKPEDTAVYYCAATESWDYDYWGQGTQVTVSS”, for which the “polyreactivity (PSR sort gate)” value is recorded as “low polyreactivity”.

In the case of “QVQLVESGGGLVQAAGSLRLSCAPSGSIYNYTIGWYRQAPGKERELVAAISRSGTRTYYADSVKGRFTISRDNAKNTVYLQMNSLKPEDTAVYYCAARILPPGDNVDDDYWGQGTQVTVSS”, the “polyreactivity (PSR sort gate)” value is given as “high polyreactivity”.

On to “QVQLVESGGGLVQAAGSLRLSCDASGRIFAYYAMGWYRQAPGKERELVAAISRSGVSTYYADSVKGRFTISRDNAKNTVYLQMNSLKPEDTAVYYCAARWRSGFTSGDYWGQGTQVTVSS”, for which the “polyreactivity (PSR sort gate)” value is “low polyreactivity”.

For the sequence “QVQLVESGGGLVQAAGSLRVSCAASGSIFYSNVMGWYRTEPGKERELVARISDAGSTNYADSVKGRFTISRDNAKNTVYLQMNSLKPEDTAVYYCNARLVIYTYDYWGQGTQVTVSS”, the “polyreactivity (PSR sort gate)” value was “low polyreactivity”.

As to “QVQLVESGGGLVQAAGSLRVSCAASGSTFSWNPMGWSIQAPGKERELVAASTSGGRTYYADSVKGRFTISRDNAKNTVYLQMNSLKPADTAVYYCAAYATIYRDMGYWGHGTQVTVSS”, the “polyreactivity (PSR sort gate)” value is listed as “high polyreactivity”.

Consider “QVQLVESGGGLVQAGASLRLSCAASGFIFAINTMGWNLQAPGKETELVAGINWRGSSKYYADSVKGRFTISRDNAKNTVYLQMNSLKPEDTAVYYCAARRFWGSDYDYWGLGTQVTVSS”, for which the “polyreactivity (PSR sort gate)” value is reported as “high polyreactivity”.

On to “QVQLVESGGGLVQAGASLRLSCAASGFTFDENAMGWYRQAPGINYSGASTYYAHSVKGRFTISRDNAKNTVYIHMNSLQPEDTAVYYCAAEVVAQMNYWGQGTQVTVSS”, for which the “polyreactivity (PSR sort gate)” value is “low polyreactivity”.

Take “QVQLVESGGGLVQAGASLRLSCAASGFTFGTYVMGWYRQAPGKERELVARITYGGGRTYYADSVKGRFTISRDNAKNTVYLQMNSLNPEDTAVYYSNARVTYSRYFKGYNYWGQGTQVTVSS”: the “polyreactivity (PSR sort gate)” value is “high polyreactivity”.

As to “QVQLVESGGGLVQAGASLRLSCAASGFTFGWYAMGWSRQARGKERELVAAISYSGGSTYYADSVKGRFTISRDNAKNTVYLQMISLKPEDTAVYYCAALYTGDSGYWGQGTQVTVSS”, the “polyreactivity (PSR sort gate)” value is “high polyreactivity”.

For “QVQLVESGGGLVQAGASLRLSCAASGGIFYVYDMGWYRQAPGKERELVAVITFTGGSTYYADSVKGRYTISRDNAKNSVYFQKNRLKPEDTAVYYCAADAYQSAYSGEYDVYTEYDYWGQGTQVTVSS”, the “polyreactivity (PSR sort gate)” value is on record as “low polyreactivity”.

“QVQLVESGGGLVQAGASLRLSCAASGRIFGRNAMGWYRQAPGKERELVAAISSGSGSTYYADSVKGRFTISRDNAKHTVYLQLNSLIPEDTAVYYCAATVSTYLAWRGYWGQGTQVTVSS”: the “polyreactivity (PSR sort gate)” value is reported as “high polyreactivity”.

For the sequence “QVQLVESGGGLVQAGASLRLSCAASGRIFGVYAMGWYRQAPGKDRELVAGINGGDSTYYADSVKGRFTISRDNAKNTVYLQINSLKPEDTAVYYCAAQADESGSNYDYWGQGTQVTVSS”, the “polyreactivity (PSR sort gate)” value is reported as “low polyreactivity”.

In the case of “QVQLVESGGGLVQAGASLRLSCAASGRIFNIYALGWYRQAPGKERELVADITSGGTTYADSVKWRFTISRDNAKNTVYLQMNSLKPEDTAVYYCAAVYRYRNRRDYDYWGQGTQVTVSS”, the “polyreactivity (PSR sort gate)” value was “high polyreactivity”.

Turning to “QVQLVESGGGLVQAGASLRLSCAASGRIFSKNAMGWYRQAPGKERELVAAISANTGSTYYADSVKGRFTISRDNAKNTVYLQMNILKPEDTAVYYCATTWTIRRYRYTPRLVDYWGQGTQVTVSS”, the “polyreactivity (PSR sort gate)” value is recorded as “low polyreactivity”.

Turning to “QVQLVESGGGLVQAGASLRLSCAASGRTFGYYAMGWYRQAPGKERELVATISRRGGRTYYADSVKGRFTISRDNAKNTVYLQMNSLKPEDTAVYYCNKYLASYSYSDLVYWGQGTQVTVSS”, the “polyreactivity (PSR sort gate)” value is “high polyreactivity”.

For “QVQLVESGGGLVQAGASLRLSCAASGRTFNVYAMGWYRQAPGKERELVASISSGTSTNYADSVKGRFTISRDNAKNTVYLQMNSLKPEDTAVYYCNADFVWNGYSGRIRDYYWGQGTQVTVSS”, the “polyreactivity (PSR sort gate)” value is given as “low polyreactivity”.

Turning to “QVQLVESGGGLVQAGASLRLSCAASGRTFSNYEMGSYRQAPGKERELVAAISGTGGTTYYADSVKGRFTISRVNEKNTVYLQMNSLKPEDTAVYYCAARSHTGYFPPSYYSGQGTQVTVSS”, the “polyreactivity (PSR sort gate)” value is listed as “high polyreactivity”.
